Measured values as given in publication PMC9464592 (Nature, 2022).

T1: tag-free WDR59 (human, UniProt Q6PJI9 1-974)
T1 sequence: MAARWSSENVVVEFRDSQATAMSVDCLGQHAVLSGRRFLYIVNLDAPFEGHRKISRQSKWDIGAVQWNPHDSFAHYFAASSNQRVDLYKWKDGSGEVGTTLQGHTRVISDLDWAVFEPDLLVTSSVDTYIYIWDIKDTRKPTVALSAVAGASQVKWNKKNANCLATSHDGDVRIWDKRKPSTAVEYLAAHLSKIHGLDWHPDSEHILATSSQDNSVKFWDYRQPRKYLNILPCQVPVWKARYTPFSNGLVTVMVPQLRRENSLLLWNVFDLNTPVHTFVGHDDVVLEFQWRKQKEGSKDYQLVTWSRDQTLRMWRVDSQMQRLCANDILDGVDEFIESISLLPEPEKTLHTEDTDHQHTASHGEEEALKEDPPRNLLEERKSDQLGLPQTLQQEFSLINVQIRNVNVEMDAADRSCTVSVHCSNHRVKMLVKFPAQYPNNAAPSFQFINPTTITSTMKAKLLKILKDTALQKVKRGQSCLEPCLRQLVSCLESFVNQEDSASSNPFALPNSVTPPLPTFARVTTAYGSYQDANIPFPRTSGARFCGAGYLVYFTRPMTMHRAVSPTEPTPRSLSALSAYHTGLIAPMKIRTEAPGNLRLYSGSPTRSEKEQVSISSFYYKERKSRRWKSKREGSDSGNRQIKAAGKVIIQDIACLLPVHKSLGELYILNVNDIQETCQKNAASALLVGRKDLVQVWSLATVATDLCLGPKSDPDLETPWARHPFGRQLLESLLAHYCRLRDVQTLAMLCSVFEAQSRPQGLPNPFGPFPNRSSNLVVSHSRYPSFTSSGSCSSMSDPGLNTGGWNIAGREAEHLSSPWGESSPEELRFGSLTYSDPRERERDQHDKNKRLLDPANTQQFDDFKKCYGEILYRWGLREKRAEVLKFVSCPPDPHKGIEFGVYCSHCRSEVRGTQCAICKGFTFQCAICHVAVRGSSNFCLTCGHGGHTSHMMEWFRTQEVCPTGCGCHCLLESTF


Columns and labels:
tag-free WDR59 [1] = target: T1, tag-free WDR59; assay: SEC
tag-free WDR59 [2] = target: T1, tag-free WDR59; assay: cryo-EM structure

binding result (tag-free WDR59 [1]) | binding result (tag-free WDR59 [2]) | Binder
binds | – | WDR24 ∆CTD (domain or fragment, human, UniProt Q96S15 1-700, looked up) MEKMSRVTTALGGSVLTGRTMHCHLDAPANAISVCRDAAQVVVAGRSIFKIYAIEEEQFVEKLNLRVGRKPSLNLSCADVVWHQMDENLLATAATNGVVVTWNLGRPSRNKQDQLFTEHKRTVNKVCFHPTEAHVLLSGSQDGFMKCFDLRRKDSVSTFSGQSESVRDVQFSIRDYFTFASTFENGNVQLWDIRRPDRCERMFTAHNGPVFCCDWHPEDRGWLATGGRDKMVKVWDMTTHRAKEMHCVQTIASVARVKWRPECRHHLATCSMMVDHNIYVWDVRRPFVPAAMFEEHRDVTTGIAWRHPHDPSFLLSGSKDSSLCQHLFRDASQPVERANPEGLCYGLFGDLAFAAKESLVAAESGRKPYTGDRRHPIFFKRKLDPAEPFAGLASSALSVFETEPGGGGMRWFVDTAERYALAGRPLAELCDHNAKVARELGRNQVAQTWTMLRIIYCSPGLVPTANLNHSVGKGGSCGLPLMNSFNLKDMAPGLGSETRLDRSKGDARSDTVLLDSSATLITNEDNEETEGSDVPADYLLGDVEGEEDELYLLDPEHAHPEDPECVLPQEAFPLRHEIVDTPPGPEHLQDKADSPHVSGSEADVASLAPVDSSFSLLSVSHALYDSRLPPDFFGVLVRDMLHFYAEQGDVQMAVSVLIVLGERVRKDIDEQTQEHWYTSYIDLLQRFRLWNVSNEVVKLS
binds | – | MIOS A560E (natural protein, human) MSGTKPDILWAPHHVDRFVVCDSELSLYHVESTVNSELKAGSLRLSEDSAATLLSINSDTPYMKCVAWYLNYDPECLLAVGQANGRVVLTSLGQDHNSKFKDLIGKEFVPKHARQCNTLAWNPLDSNWLAAGLDKHRADFSVLIWDICSKYTPDIVPMEKVKLSAGETETTLLVTKPLYELGQNDACLSLCWLPRDQKLLLAGMHRNLAIFDLRNTSQKMFVNTKAVQGVTVDPYFHDRVASFYEGQVAIWDLRKFEKPVLTLTEQPKPLTKVAWCPTRTGLLATLTRDSNIIRLYDMQHTPTPIGDETEPTIIERSVQPCDNYIASFAWHPTSQNRMIVVTPNRTMSDFTVFERISLAWSPITSLMWACGRHLYECTEEENDNSLEKDIATKMRLRALSRYGLDTEQVWRNHILAGNEDPQLKSLWYTLHFMKQYTEDMDQKSPGNKGSLVYAGIKSIVKSSLGMVESSRHNWSGLDKQSDIQNLNEERILALQLCGWIKKGTDVDVGPFLNSLVQEGEWERAAAVALFNLDIRRAIQILNEGASSEKGDLNLNVVAMELSGYTDEKNSLWREMCSTLRLQLNNPYLCVMFAFLTSETGSYDGVLYENKVAVRDRVAFACKFLSDTQLNRYIEKLTNEMKEAGNLEGILLTGLTKDGVDLMESYVDRTGDVQTASYCMLQGSPLDVLKDERVQYWIENYRNLLDAWRFWHKRAEFDIHRSKLDPSSKPLAQVFVSCNFCGKSISYSCSAVPHQGRGFSQYGVSGSPTKSKVTSCPGCRKPLPRCALCLINMGTPVSSCPGGTKSDEKVDLSKDKKLAQFNNWFTWCHNCRHGGHAGHMLSWFRDHAECPVSACTCKCMQLDTTGNLVPAETVQP
– | binds | N-terminally Flag-tagged MIOS (natural protein, human) MSGTKPDILWAPHHVDRFVVCDSELSLYHVESTVNSELKAGSLRLSEDSAATLLSINSDTPYMKCVAWYLNYDPECLLAVGQANGRVVLTSLGQDHNSKFKDLIGKEFVPKHARQCNTLAWNPLDSNWLAAGLDKHRADFSVLIWDICSKYTPDIVPMEKVKLSAGETETTLLVTKPLYELGQNDACLSLCWLPRDQKLLLAGMHRNLAIFDLRNTSQKMFVNTKAVQGVTVDPYFHDRVASFYEGQVAIWDLRKFEKPVLTLTEQPKPLTKVAWCPTRTGLLATLTRDSNIIRLYDMQHTPTPIGDETEPTIIERSVQPCDNYIASFAWHPTSQNRMIVVTPNRTMSDFTVFERISLAWSPITSLMWACGRHLYECTEEENDNSLEKDIATKMRLRALSRYGLDTEQVWRNHILAGNEDPQLKSLWYTLHFMKQYTEDMDQKSPGNKGSLVYAGIKSIVKSSLGMVESSRHNWSGLDKQSDIQNLNEERILALQLCGWIKKGTDVDVGPFLNSLVQEGEWERAAAVALFNLDIRRAIQILNEGASSEKGDLNLNVVAMALSGYTDEKNSLWREMCSTLRLQLNNPYLCVMFAFLTSETGSYDGVLYENKVAVRDRVAFACKFLSDTQLNRYIEKLTNEMKEAGNLEGILLTGLTKDGVDLMESYVDRTGDVQTASYCMLQGSPLDVLKDERVQYWIENYRNLLDAWRFWHKRAEFDIHRSKLDPSSKPLAQVFVSCNFCGKSISYSCSAVPHQGRGFSQYGVSGSPTKSKVTSCPGCRKPLPRCALCLINMGTPVSSCPGGTKSDEKVDLSKDKKLAQFNNWFTWCHNCRHGGHAGHMLSWFRDHAECPVSACTCKCMQLDTTGNLVPAETVQP
